Source: PMC2603141 (Virology, 2008)

What was measured:
[1] = molecular target: the molecule itself; experiment: negative-stain electron microscopy
[2] = molecular target: the molecule itself; experiment: reducing and non-reducing SDS-PAGE

B1: PIV 5 hemagglutinin-neuraminidase (HN) ectodomain beginning at residue 56, HN(ecto56) (domain or fragment)
chain: SPSSGLGSITDLLNNILSVANQIIYNSAVALPLQLDTLESTLLTAIKSLQTSDKLEQNCSWSAALINDNRYINGINQFYFSIAEGRNLTLGPLLNMPSFIPTATTPEGCTRIPSFSLTKTHWCYTHNVILNGCQDHVSSNQFVSMGIIEPTSAGFPFFRTLKTLYLSDGVNRKSCSISTVPGGCMMYCFVSTQPERDDYFSAAPPEQRIIIMYYNDTIVERIINPPGVLDVWATLNPGTGSGVYYLGWVLFPIYGGVIKGTSLWNNQANKYFIPQMVAALCSQNQATQVQNAKSSYYSSWFGNRMIQSGILACPLRQDLTNECLVLPFSNDQVLMGAEGRLYMYGDSVYYYQRSNSWWPMTMLYKVTITFTNGQPSAISAQNVPTQQVPRPGTGDCSATNRCPGFCLTGVYADAWLLTNPSSTSTFGSEATFTGSYLNTATQRINPTMYIANNTQIISSQQFGSSGQEAAYGHTTCFRDTGSVMVYCIYIIELSSSLLGQFQIVPFIRQVTLS
modifications: carbohydrate at 4 N-linked glycosylation sites; inter-chain disulfide bond (covalent dimers)
stoichiometry N [1]: 4 | stoichiometry N [2]: 2
